Reference: PMC9482650, “Quantitative fragmentomics allow affinity mapping of interactomes” (Nature Communications, 2022)

T1: MPDZ_6, O75970
T1 sequence (O75970 1003-1099, limits assumed, looked up): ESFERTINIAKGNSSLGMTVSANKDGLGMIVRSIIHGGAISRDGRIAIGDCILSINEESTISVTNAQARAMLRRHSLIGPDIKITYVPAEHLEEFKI

T2: TJP3_2, O95049
T2 sequence (O95049 190-282, limits assumed, looked up): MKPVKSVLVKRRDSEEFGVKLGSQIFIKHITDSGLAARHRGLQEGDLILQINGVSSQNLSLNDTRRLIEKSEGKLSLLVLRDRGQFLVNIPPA

T3: SIPA1L3, O60292
T3 sequence (O60292 961-1052, limits assumed, looked up): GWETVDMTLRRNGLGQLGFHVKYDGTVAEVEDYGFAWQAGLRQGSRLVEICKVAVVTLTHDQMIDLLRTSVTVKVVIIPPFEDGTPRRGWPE

T4: PDZD7_1, Q9H5P4
T4 sequence (Q9H5P4 81-178, limits assumed, looked up): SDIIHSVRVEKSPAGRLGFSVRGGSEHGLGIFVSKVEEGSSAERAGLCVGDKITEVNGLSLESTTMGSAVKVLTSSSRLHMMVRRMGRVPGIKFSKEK

T5: PDZD7_2, Q9H5P4
T5 sequence (Q9H5P4 205-303, limits assumed, looked up): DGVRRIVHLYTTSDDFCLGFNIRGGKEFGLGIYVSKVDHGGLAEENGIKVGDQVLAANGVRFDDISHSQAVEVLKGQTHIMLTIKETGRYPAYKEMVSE

T6: MPP5, Q8N3R9
T6 sequence (Q8N3R9 251-346, limits assumed, looked up): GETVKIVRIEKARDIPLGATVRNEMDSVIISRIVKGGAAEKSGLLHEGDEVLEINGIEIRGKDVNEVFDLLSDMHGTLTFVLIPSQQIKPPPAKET

T7: PDZD2_3, O15018
T7 sequence (O15018 581-682, limits assumed, looked up): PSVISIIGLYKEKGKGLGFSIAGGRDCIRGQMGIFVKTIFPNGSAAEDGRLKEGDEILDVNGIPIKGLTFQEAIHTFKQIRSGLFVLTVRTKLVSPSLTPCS

T8: PDLIM3, Q53GG5
T8 sequence (Q53GG5 1-94, limits assumed, looked up): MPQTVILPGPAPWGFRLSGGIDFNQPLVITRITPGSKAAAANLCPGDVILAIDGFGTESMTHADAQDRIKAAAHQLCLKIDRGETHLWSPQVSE

T9: PARD6G, Q9BYG4
T9 sequence (Q9BYG4 153-261, limits assumed, looked up): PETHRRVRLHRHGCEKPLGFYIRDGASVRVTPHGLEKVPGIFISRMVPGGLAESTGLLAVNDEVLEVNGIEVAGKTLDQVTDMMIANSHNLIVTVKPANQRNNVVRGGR

T10: MLLT4, P55196
T10 sequence (P55196 1002-1103, limits assumed, looked up): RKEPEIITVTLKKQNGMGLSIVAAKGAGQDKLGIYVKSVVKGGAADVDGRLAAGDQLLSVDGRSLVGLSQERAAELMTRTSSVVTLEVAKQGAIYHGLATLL

T11: PDZD2_4, O15018
T11 sequence (O15018 723-823, limits assumed, looked up): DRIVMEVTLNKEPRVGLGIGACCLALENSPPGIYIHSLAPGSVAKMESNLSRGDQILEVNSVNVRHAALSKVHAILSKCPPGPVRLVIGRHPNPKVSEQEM

T12: SHROOM4, Q9ULL8
T12 sequence (Q9ULL8 5-102, limits assumed, looked up): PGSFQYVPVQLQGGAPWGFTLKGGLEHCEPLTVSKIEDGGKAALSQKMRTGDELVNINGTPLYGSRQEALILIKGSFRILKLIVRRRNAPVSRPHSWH

T13: MPDZ_7, O75970
T13 sequence (O75970 1146-1253, limits assumed, looked up): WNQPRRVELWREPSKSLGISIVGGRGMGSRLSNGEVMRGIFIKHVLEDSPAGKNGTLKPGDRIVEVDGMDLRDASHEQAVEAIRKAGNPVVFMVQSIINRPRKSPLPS


What was measured:
Test in all cases: holdup assay
Parameters in all cases: key: below the threshold = too weak to quantify, mostly under pKd 3.1 to 4
Conditions in all cases: plain residues with an end cap or a label only (N-terminal biotin on a linker: ttds)
MPDZ_6, O75970 = molecular target: T1, MPDZ_6, O75970
TJP3_2, O95049 = molecular target: T2, TJP3_2, O95049
SIPA1L3, O60292 = molecular target: T3, SIPA1L3, O60292
LMO7, Q8WWI1 = molecular target: LMO7, Q8WWI1
LMO7, Q8WWI1, sequence (Q8WWI1 1037-1138): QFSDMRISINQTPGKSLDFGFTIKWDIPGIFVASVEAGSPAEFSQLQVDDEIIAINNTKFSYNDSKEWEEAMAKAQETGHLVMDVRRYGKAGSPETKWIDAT

PDZD7_1, Q9H5P4 = molecular target: T4, PDZD7_1, Q9H5P4
MAGI1_5, Q96QZ7 = molecular target: MAGI1_5, Q96QZ7
MAGI1_5, Q96QZ7, sequence (Q96QZ7 986-1098): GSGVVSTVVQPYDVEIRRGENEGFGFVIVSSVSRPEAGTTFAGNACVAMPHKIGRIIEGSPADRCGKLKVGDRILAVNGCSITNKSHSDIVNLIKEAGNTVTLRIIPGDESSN

CARD14, Q9BXL6 = molecular target: CARD14, Q9BXL6
CARD14, Q9BXL6, sequence (Q9BXL6 558-663): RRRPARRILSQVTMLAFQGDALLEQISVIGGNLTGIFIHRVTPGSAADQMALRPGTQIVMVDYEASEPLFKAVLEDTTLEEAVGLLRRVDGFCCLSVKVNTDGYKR

PARD3B_2, Q8TEW8 = molecular target: PARD3B_2, Q8TEW8
PARD3B_2, Q8TEW8, sequence (Q8TEW8 376-471): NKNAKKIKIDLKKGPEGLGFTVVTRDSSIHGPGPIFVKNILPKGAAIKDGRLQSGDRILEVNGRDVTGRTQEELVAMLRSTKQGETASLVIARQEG

PDZD7_2, Q9H5P4 = molecular target: T5, PDZD7_2, Q9H5P4
DVL2, O14641 = molecular target: DVL2, O14641
DVL2, O14641, sequence (O14641 260-359): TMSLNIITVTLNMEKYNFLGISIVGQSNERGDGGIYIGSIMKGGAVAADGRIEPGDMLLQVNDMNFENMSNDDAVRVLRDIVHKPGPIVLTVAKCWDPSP

MAGI1_3, Q96QZ7 = molecular target: MAGI1_3, Q96QZ7
MAGI1_3, Q96QZ7, sequence (Q96QZ7 638-725): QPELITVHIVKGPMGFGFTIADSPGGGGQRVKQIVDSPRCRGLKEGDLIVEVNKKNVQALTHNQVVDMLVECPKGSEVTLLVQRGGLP

MPP5, Q8N3R9 = molecular target: T6, MPP5, Q8N3R9
RIMS1, Q86UR5 = molecular target: RIMS1, Q86UR5
RIMS1, Q86UR5, sequence (Q86UR5 584-692): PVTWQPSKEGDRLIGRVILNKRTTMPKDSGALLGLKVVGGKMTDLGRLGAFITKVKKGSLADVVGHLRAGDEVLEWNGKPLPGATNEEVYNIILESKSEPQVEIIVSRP

PDZD2_3, O15018 = molecular target: T7, PDZD2_3, O15018
RGS3, P49796-9 = molecular target: RGS3, P49796-9
RGS3, P49796-9, sequence (P49796 other isoform, or with tags, fused parts or gaps): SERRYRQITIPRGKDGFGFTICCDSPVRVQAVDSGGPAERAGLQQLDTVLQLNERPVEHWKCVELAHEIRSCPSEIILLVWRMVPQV

PDLIM3, Q53GG5 = molecular target: T8, PDLIM3, Q53GG5
PARD6G, Q9BYG4 = molecular target: T9, PARD6G, Q9BYG4
MLLT4, P55196 = molecular target: T10, MLLT4, P55196
SDCBP_1, O00560 = molecular target: SDCBP_1, O00560
SDCBP_1, O00560, sequence (O00560 111-198): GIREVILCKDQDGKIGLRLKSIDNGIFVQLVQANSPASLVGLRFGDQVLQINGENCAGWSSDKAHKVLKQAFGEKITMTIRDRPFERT

MAGI3_5, Q5TCQ9 = molecular target: MAGI3_5, Q5TCQ9
MAGI3_5, Q5TCQ9, sequence (Q5TCQ9 847-941): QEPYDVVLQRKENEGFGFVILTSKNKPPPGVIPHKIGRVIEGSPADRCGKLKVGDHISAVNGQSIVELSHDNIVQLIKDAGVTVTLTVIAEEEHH

PDZD2_4, O15018 = molecular target: T11, PDZD2_4, O15018
IL16_2, Q14005 = molecular target: IL16_2, Q14005
IL16_2, Q14005, sequence (Q14005 350-450): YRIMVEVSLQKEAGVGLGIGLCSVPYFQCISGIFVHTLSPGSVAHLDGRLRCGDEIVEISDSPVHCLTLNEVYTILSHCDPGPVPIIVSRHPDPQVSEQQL

SHROOM4, Q9ULL8 = molecular target: T12, SHROOM4, Q9ULL8
MPDZ_7, O75970 = molecular target: T13, MPDZ_7, O75970
RIMS2, Q9UQ26 = molecular target: RIMS2, Q9UQ26
RIMS2, Q9UQ26, sequence (Q9UQ26 637-758): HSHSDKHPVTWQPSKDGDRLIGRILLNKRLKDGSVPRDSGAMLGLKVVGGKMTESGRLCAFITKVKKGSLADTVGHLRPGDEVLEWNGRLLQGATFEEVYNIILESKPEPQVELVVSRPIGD

Row | Binder | pKd (MPDZ_6, O75970) | pKd (TJP3_2, O95049) | pKd (SIPA1L3, O60292) | pKd (PDZD7_1, Q9H5P4) | pKd (MAGI1_5, Q96QZ7) | pKd (CARD14, Q9BXL6) | pKd (PDZD7_2, Q9H5P4) | pKd (DVL2, O14641) | pKd (MAGI1_3, Q96QZ7) | pKd (MPP5, Q8N3R9) | pKd (RIMS1, Q86UR5) | pKd (PDZD2_3, O15018) | pKd (RGS3, P49796-9) | pKd (PDLIM3, Q53GG5) | pKd (PARD6G, Q9BYG4) | pKd (MLLT4, P55196) | pKd (SDCBP_1, O00560) | pKd (MAGI3_5, Q5TCQ9) | pKd (PDZD2_4, O15018) | pKd (IL16_2, Q14005) | other results
1 | SVWLRKETRV [CYSLTR2, Q9NS75] | below the threshold | below the threshold | below the threshold | below the threshold | 4.57 | below the threshold | below the threshold | below the threshold | 5.09 | below the threshold | below the threshold | below the threshold | below the threshold | below the threshold | below the threshold | below the threshold | below the threshold | below the threshold | 4.48 | below the threshold | pKd (LMO7, Q8WWI1): below the threshold; pKd (PARD3B_2, Q8TEW8): below the threshold; pKd (SHROOM4, Q9ULL8): below the threshold; pKd (MPDZ_7, O75970): 4.33; pKd (RIMS2, Q9UQ26): below the threshold
2 | SSRTRRETQL [HPV16-E6, P03126] | below the threshold | below the threshold | below the threshold | below the threshold | 4.69 | below the threshold | below the threshold | below the threshold | 4.16 | below the threshold | below the threshold | below the threshold | below the threshold | 3.88 | below the threshold | below the threshold | below the threshold | 3.96 | below the threshold | below the threshold | pKd (LMO7, Q8WWI1): 4.15; pKd (PARD3B_2, Q8TEW8): below the threshold; pKd (SHROOM4, Q9ULL8): below the threshold; pKd (MPDZ_7, O75970): 4.22; pKd (RIMS2, Q9UQ26): below the threshold
3 | RSLEEEESQL [GRASP, Q7Z6J2] | below the threshold | below the threshold | below the threshold | below the threshold | below the threshold | below the threshold | below the threshold | below the threshold | below the threshold | below the threshold | below the threshold | below the threshold | below the threshold | below the threshold | below the threshold | below the threshold | below the threshold | below the threshold | below the threshold | below the threshold | pKd (LMO7, Q8WWI1): 4.14; pKd (PARD3B_2, Q8TEW8): below the threshold; pKd (SHROOM4, Q9ULL8): below the threshold; pKd (MPDZ_7, O75970): below the threshold; pKd (RIMS2, Q9UQ26): below the threshold
4 | SRPQRTQTQV [HPV67-E6, A4U7F2] | below the threshold | below the threshold | below the threshold | below the threshold | 4.35 | below the threshold | below the threshold | below the threshold | 4.12 | below the threshold | below the threshold | below the threshold | below the threshold | below the threshold | below the threshold | below the threshold | below the threshold | below the threshold | below the threshold | 4.25 | pKd (SHROOM4, Q9ULL8): below the threshold; pKd (MPDZ_7, O75970): below the threshold; pKd (RIMS2, Q9UQ26): below the threshold
